Results from patent US20250282835A1.

What was measured:
Assay in all cases: cell-based or functional assay
CytERm-mScarlet3 = target: CytERm-mScarlet3
CytERm-mScarlet-I3 = target: CytERm-mScarlet-I3
Cyterm fusion: dTomato = target: Cyterm fusion: dTomato
Cyterm fusion: mEGFP = target: Cyterm fusion: mEGFP
Cyterm-TagRFP-T = target: Cyterm-TagRFP-T
Cyterm-mCherry = target: Cyterm-mCherry
Cyterm-mScarlet = target: Cyterm-mScarlet
Cyterm-mScarlet-I = target: Cyterm-mScarlet-I

## CytERm-mScarlet3
CytERm-mScarlet3
  % cells with OSER: 7%

## CytERm-mScarlet-I3
CytERm-mScarlet-I3
  % cells with OSER: 5%

## Cyterm fusion: dTomato
Cyterm fusion: dTomato
  % cells with OSER: 82%

## Cyterm fusion: mEGFP
Cyterm fusion: mEGFP
  % cells with OSER: 11%

## Cyterm-TagRFP-T
Cyterm-TagRFP-T
  % cells with OSER: 64%

## Cyterm-mCherry
Cyterm-mCherry
  % cells with OSER: 18%

## Cyterm-mScarlet
Cyterm-mScarlet
  % cells with OSER: 8%

## Cyterm-mScarlet-I
Cyterm-mScarlet-I
  % cells with OSER: 8%
